Test results: patent US20050226813A1, “Labelled somatostatin analogs backbone cyclized through metal complexation” (priority 2002, published 2005)
*1 amine or outer side, *2 acyl side, *3 side chain or, on linkers, in order; H or OH if unused. Where no end group is shown, it is not given here. [ ]: non-standard residue; d: D form. ReO = oxorhenium(V), one metal core binding both hemi-chelators, from trichlorooxobis(triphenylphosphine)rhenium(V); GlyN3 = N-(3-aminopropyl)glycine amide, Cys acylated on the omega-amine, NC(=O)CN(CCCN[*:3])[*:1]; GlyN6 = Gly building unit carrying an omega-amine (Cys attached there); N(6-aminohexyl)Gly = O=C(CN(CCCCCCN[*:3])[*:1])[*:2]; N(2-Aminoethyl)Gly = O=C(CN(CCN[*:3])[*:1])[*:2]

B1: ReO-GF-14 (peptide)
peptide: CFWWKTFG
modifications: not fully specified; L-Cys at 1; D-Trp at 4; GlyN6 building unit at 8 with D-Cys on its omega-amine; C-terminal amide; ReO (oxorhenium(V)) chelated by the two Cys closes the ring
notes: also called ReO-LCys*-Phe-Trp-DTrp-Lys-Thr-Phe-GlyN6(DCys*)-NH2
B2: ReO-GF-34 (peptide)
peptide: CXFWWKTFG
modifications: L-Cys at 1; GABA at 2 (written X); D-Trp at 5; GlyN2 building unit at 9 with D-Cys on its omega-amine; C-terminal amide; ReO (oxorhenium(V)) chelated by the two Cys closes the ring
B3: ReO-GF-13 (peptide)
peptide: CFW[dW]KTF[GlyN6](Cys)-NH2
modifications: bridge (positions not given here) via ReO; not fully specified (bridges); also: oxorhenium(V) metal chelate (N2S2)
B4: ReO-GF-46 (peptide)
peptide: CFW[dW]KTF[N(2-Aminoethyl)Gly](dC)-NH2
modifications: bridge (positions not given here) via ReO; not fully specified (bridges); also: N2S2 oxorhenium(V) chelate via the two Cys
B5: ReO-GF-19 (peptide)
peptide: CXFWWKTFG
modifications: D-Cys at 1; GABA at 2 (written X); D-Trp at 5; GlyN3 building unit at 9 with L-Cys on its omega-amine; C-terminal amide; ReO (oxorhenium(V)) chelated by the two Cys closes the ring
B6: ReO-GF-9 (peptide)
peptide: CGFW[dW]KTF[N(6-aminohexyl)Gly](Cys)-NH2
modifications: bridge (positions not given here); not fully specified (bridges); also: N2S2 oxorhenium(V) chelate via the two Cys
B7: ReO-GF-41 (peptide)
peptide: CGFW[dW]KTF[N(2-Aminoethyl)Gly](Cys)-NH2
modifications: bridge (positions not given here) via ReO; not fully specified (bridges); also: N2S2 oxorhenium(V) chelate via the two Cys
B8: ReO-GF-38 (peptide)
peptide: CXFWWKTFG
modifications: L-Cys at 1; beta-Ala at 2 (written X); D-Trp at 5; GlyN2 building unit at 9 with D-Cys on its omega-amine; C-terminal amide; ReO (oxorhenium(V)) chelated by the two Cys closes the ring
B9: ReO-GF-28 (peptide)
peptide: CGFWWKTFG
modifications: not fully specified; D-Cys at 1; D-Trp at 5; GlyN3 building unit at 9 with D-Cys on its omega-amine; C-terminal amide; ReO (oxorhenium(V)) chelated by the two Cys closes the ring
B10: ReO-GF-22 (peptide)
peptide: CXFWWKTFG
modifications: L-Cys at 1; beta-Ala at 2 (written X); D-Trp at 5; GlyN3 building unit at 9 with D-Cys on its omega-amine; C-terminal amide; ReO (oxorhenium(V)) chelated by the two Cys closes the ring
B11: ReO-GF-5 (peptide)
peptide: CXFWWKTFG
modifications: L-Cys at 1; beta-Ala at 2 (written X); D-Trp at 5; GlyN6 building unit at 9 with L-Cys on its omega-amine; C-terminal amide; ReO (oxorhenium(V)) chelated by the two Cys closes the ring
B12: ReO-GF-8 (peptide)
peptide: CXFWWKTFG
modifications: not fully specified; D-Cys at 1; beta-Ala at 2 (written X); D-Trp at 5; GlyN6 building unit at 9 with D-Cys on its omega-amine; C-terminal amide; ReO (oxorhenium(V)) chelated by the two Cys closes the ring
B13: ReO-GF-44 (peptide)
peptide: CGFWWKTFG
modifications: not fully specified; D-Cys at 1; D-Trp at 5; GlyN2 building unit at 9 with D-Cys on its omega-amine; C-terminal amide; ReO (oxorhenium(V)) chelated by the two Cys closes the ring
B14: ReO-GF-33 (peptide)
peptide: CXFWWKTFG
modifications: L-Cys at 1; GABA at 2 (written X); D-Trp at 5; GlyN2 building unit at 9 with L-Cys on its omega-amine; C-terminal amide; ReO (oxorhenium(V)) chelated by the two Cys closes the ring
B15: ReO-GF-21 (peptide)
peptide: CXFWWKTFG
modifications: L-Cys at 1; beta-Ala at 2 (written X); D-Trp at 5; GlyN3 building unit at 9 with L-Cys on its omega-amine; C-terminal amide; ReO (oxorhenium(V)) chelated by the two Cys closes the ring
notes: also called ReO-LCys*-βAla-Phe-Trp-DTrp-Lys-Thr-Phe-GlyN3(LCys*)-NH2
B16: ReO-GF-25 (peptide)
peptide: CGFW[dW]KTF[GlyN3](Cys)-NH2
modifications: bridge (positions not given here) via ReO; not fully specified (bridges); also: N2S2 oxorhenium(V) chelate via the two Cys
B17: ReO-GF-17 (peptide)
peptide: CXFWWKTFG
modifications: L-Cys at 1; GABA at 2 (written X); D-Trp at 5; GlyN3 building unit at 9 with L-Cys on its omega-amine; C-terminal amide; ReO (oxorhenium(V)) chelated by the two Cys closes the ring
B18: ReO-GF-36 (peptide)
peptide: CXFWWKTFG
modifications: not fully specified; D-Cys at 1; GABA at 2 (written X); D-Trp at 5; GlyN2 building unit at 9 with D-Cys on its omega-amine; C-terminal amide; ReO (oxorhenium(V)) chelated by the two Cys closes the ring
B19: ReO-GF-10 (peptide)
peptide: CGFWWKTFG
modifications: not fully specified; L-Cys at 1; D-Trp at 5; GlyN6 building unit at 9 with D-Cys on its omega-amine; C-terminal amide; ReO (oxorhenium(V)) chelated by the two Cys closes the ring
notes: also called ReO-LCys*-Gly-Phe-Trp-DTrp-Lys-Thr-Phe-GlyN6(DCys*)-NH2
B20: ReO-GF-47 (peptide)
peptide: CFWWKTFG
modifications: not fully specified; D-Cys at 1; D-Trp at 4; GlyN2 building unit at 8 with L-Cys on its omega-amine; C-terminal amide; ReO (oxorhenium(V)) chelated by the two Cys closes the ring
B21: ReO-GF-16 (peptide)
peptide: CFWWKTFG
modifications: not fully specified; D-Cys at 1; D-Trp at 4; GlyN6 building unit at 8 with D-Cys on its omega-amine; C-terminal amide; ReO (oxorhenium(V)) chelated by the two Cys closes the ring
B22: ReO-GF-15 (peptide)
peptide: CFWWKTFG
modifications: not fully specified; D-Cys at 1; D-Trp at 4; GlyN6 building unit at 8 with L-Cys on its omega-amine; C-terminal amide; ReO (oxorhenium(V)) chelated by the two Cys closes the ring
B23: ReO-GF-32 (peptide)
peptide: CFWWKTFG
modifications: not fully specified; D-Cys at 1; D-Trp at 4; GlyN3 building unit at 8 with D-Cys on its omega-amine; C-terminal amide; ReO (oxorhenium(V)) chelated by the two Cys closes the ring
B24: ReO-GF-23 (peptide)
peptide: CXFWWKTFG
modifications: D-Cys at 1; beta-Ala at 2 (written X); D-Trp at 5; GlyN3 building unit at 9 with L-Cys on its omega-amine; C-terminal amide; ReO (oxorhenium(V)) chelated by the two Cys closes the ring
B25: ReO-GF-18 (peptide)
peptide: CXFWWKTFG
modifications: L-Cys at 1; GABA at 2 (written X); D-Trp at 5; GlyN3 building unit at 9 with D-Cys on its omega-amine; C-terminal amide; ReO (oxorhenium(V)) chelated by the two Cys closes the ring

target: T1, human cloned SST-R2 (human, UniProt P30874 1-369); test: inhibition of 125I-Tyr11-SRIF-14 binding to membranes of CHO cells expressing cloned human SST-R2
T1 construct: whole, on cells; Assayed as membrane preparations of CHO cells expressing the cloned receptor, not as intact cells; also called hSST-R2; human SST-R2
T1 sequence (P30874 whole entry): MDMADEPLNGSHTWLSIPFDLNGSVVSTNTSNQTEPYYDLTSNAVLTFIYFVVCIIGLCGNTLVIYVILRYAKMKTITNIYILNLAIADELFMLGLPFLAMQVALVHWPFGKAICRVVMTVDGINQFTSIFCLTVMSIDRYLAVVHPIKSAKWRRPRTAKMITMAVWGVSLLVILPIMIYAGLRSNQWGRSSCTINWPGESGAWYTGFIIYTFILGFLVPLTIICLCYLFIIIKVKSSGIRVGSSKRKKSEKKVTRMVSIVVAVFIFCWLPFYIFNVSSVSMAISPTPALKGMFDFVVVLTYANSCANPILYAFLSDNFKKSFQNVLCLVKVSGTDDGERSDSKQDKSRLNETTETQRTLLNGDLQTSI
Procedure: The SST analogs were tested for their potency in inhibition of the binding of ¹²⁵I-Tyr¹¹-SRIF (based on the method described by Raynor et. al., Molecular Pharmnacology 43: 838, 1993) to membrane preparations expressing the transmembranal SST receptors (SST-R1, 2, 3, 4 or 5). The receptor preparations used for these tests were either from the cloned human receptors selectively and stably expressed in Chinese Hamster Ovary (CHO) cells or from cell lines naturally expressing the SST-R5. Typically, cell membranes were homogenized in Tris buffer in the presence of protease inhibitors and incubated for 30-40 minutes with ¹²⁵I-Tyr¹¹-SRIF with different concentrations of the tested sample. The binding reactions were filtered, the filters were washed and the bound radioactivity was counted in β counter after addition of scintillation colution. Non specific binding was defined as the radioactivity remaining bound in the presence of 1 μM unlabeled SRIF-14.

IC50 | Binder
7 nM | B1
~100 nM | B2
~10 nM | B3
> 10 nM | B4
> 10 nM | B5
~10 nM | B6
> 10 nM | B7
> 10 nM | B8
> 10 nM | B9
11 nM | B10
35 nM | B11
5 nM | B12
> 10 nM | B13
> 10 nM | B14
1 nM | B15
> 10 nM | B16
24 nM | B17
> 10 nM | B18
3 nM | B19
> 10 nM | B20
18 nM | B21
> 10 nM | B22
14 nM | B23
~10 nM | B24
~10 nM | B25
